{"source": "patent US11407811B2", "about": "“Fusion protein, preparation method therefor and use thereof” (JIANGSU RONGTAI BIOTECH CO., LTD., priority 2017, dated 2022)", "key": {"[1]": {"tested_on": "colon cancer cells HCT-116", "assay": "MTT assay, proliferation of colon cancer cell HCT-116", "type": "cell-based", "procedure": "The MTT assay was used to detect the inhibitory effect of the integrin blocker fusion protein obtained in Example 1 on the proliferation of various tumor cells, including melanoma cell B16F10, gastric cancer cell MGC-803, lung cancer cell A549, liver cancer cell Hep-G2, breast cancer cell MDA-MB-231, colon cancer cell HCT-116, human glioma U87, and cervical cancer cell Hela.\nThe tumor cells were cultured in a 5% CO2 incubator at 37° C. to a density of 90% or more, and collected by trypsinization. The cells were resuspended in the culture liquid and counted under a microscope. The cell concentration was adjusted to 3.0×10^4 cells/mL. The cell suspension was inoculated into a 96-well plate at 100 μL per well and cultured overnight in a 5% CO2 incubator at 37° C. […] After the cells were fully adhered, each dilution was added to a 96-well plate at 100 μL per well, respectively. […] 20 μL of 5 mg/mL MTT was added to each well of a 96-well plate, and incubation was continued for 4 hours. The medium was aspirated and 100 μL of DMSO per well were added to dissolve. The absorbance was measured at 570 nm with a microplate reader with a reference wavelength of 630 nm, and the proliferation inhibition (PI) was calculated. The formula is as follows: […]\n(§1) where Ntest is the OD value of the test group and Ncontrol is the OD value of the blank control group.\nThe test was repeated 5 times independently. The results obtained from the test were calculated as mean±SD, and statistical t-test was performed. P<0.05 was considered as a significant difference, and P<0.01 was considered as an extremely significant difference."}, "[2]": {"tested_on": "human retinal vascular endothelial cell (HRCEC)", "assay": "MTT assay, proliferation of human retinal vascular endothelial cell (HRCEC)", "type": "cell-based", "settings": "48 hours", "procedure": "The activity of the integrin blocker polypeptide to inhibit proliferation of human retinal vascular endothelial cells was examined by MTT assay. HRCEC cells were cultured in a 5% CO2 incubator at 37° C. to a density of 90% or more, and then collected by trypsinization. The cells were resuspended in the culture liquid and counted under a microscope. The cell concentration was adjusted to 3.0×10^4 cells/mL. The cell suspension was inoculated into a 96-well plate at 100 μL per well and cultured in a 5% CO2 incubator at 37° C. overnight. […] After the cells were fully adhered, each dilution was added to a 96-well plate at 100 μL per well, respectively. […] 20 μL of 5 mg/mL MTT was added to each well of a 96-well plate, and incubation was continued for 4 hours. The medium was aspirated and 100 μL of DMSO was added per well for dissolution. The absorbance was measured at 570 nm with a microplate reader with a reference wavelength of 630 nm, and the proliferation inhibition (PI) was calculated. The formula was as follows: […]\nas §1\nThe test was repeated 5 times independently. The results obtained from the test were calculated as mean±SD, and statistical t-test was performed. P<0.05 was considered as significant difference, and P<0.01 was considered as extremely significant difference."}, "[3]": {"tested_on": "neovascularization in premature rat retinopathy model", "assay": "Neovascularization in premature rat retinopathy model (fluctuating oxygen-induced)", "type": "in vivo", "procedure": "A fluctuating oxygen-induced animal model was adopted, and newborn rats (within 12 hours) spontaneously delivered on the same day were randomly divided into three groups: an oxygen model group, an oxygen treatment group, and a normal control group. The oxygen model was subdivided into three model subgroups, which were placed in a semi-closed oxygen chamber made of plexiglass together with the treatment group. The medical oxygen was introduced into the chamber, and the oxygen concentration was adjusted to 80%±2% with an oxygen meter. After 24 hours, nitrogen gas was introduced into the oxygen chamber, and then the oxygen concentration was rapidly adjusted to 10%±2% and maintained for 24 hours. […] The oxygen concentration was monitored 8 times a day, and the ambient temperature in the chamber was controlled to 23° C.±2° C. […]\nOn day 14, after the rats was sacrificed with ether anesthesia, the eyeballs were removed and fixed in a 40 g/L paraformaldehyde solution for 24 hours. […] 10 sections were randomly selected from each eyeball to be stained with hematoxylin and eosin, and the nucleus of vascular endothelial cells that broke through the inner limiting membrane of the retina was counted (only the nucleus of vascular endothelial cells closely related to the inner limiting membrane were counted), and the average number of cells per section per eyeball was counted."}}, "data": [{"molecule": "Protein II: IgG2-Fc linked to antiangiogenesis polypeptide EDSM-Y via a flexible linker; SEQ ID NO: 17 (protein) ERKCCVECPPCPAPPVAGPSVFLFPPKPKDTLMISRTPEVTCVVVDVSHEDPEVQFNWYVDGVEVHNAKTKPREEQFNSTFRVVSVLTVVHQDWLNGKEYKCKVSNKGLPAPIEKTISKTKGQPREPQVYTLPPSREEMTKNQVSLTCLVKGFYPSDISVEWESNGQPENNYKTTPPMLDSDGSFFLYSKLTVDKSRWQQGNVFSCSVMHEALHNHYTQKSLSLSPGKGGGGSGGGGSGGGGSFQPVLHLVALNSPLSGGMRGIRGADFQCFQQARAVGLAGTFRAGGGGRGD", "values": [{"measurement": "A570 nm/A630 nm", "setting": "[1]; dose 1 μg/mL", "result": "0.8310 ± 0.0394"}, {"measurement": "PI (%)", "setting": "[1]; dose 1 μg/mL", "result": 5.59, "unit": "%"}, {"measurement": "A570 nm/A630 nm", "setting": "[1]; dose 2 μg/mL", "result": "0.7925 ± 0.0415"}, {"measurement": "PI (%)", "setting": "[1]; dose 2 μg/mL", "result": 9.96, "unit": "%"}, {"measurement": "A570 nm/A630 nm", "setting": "[1]; dose 4 μg/mL", "result": "0.7555 ± 0.0283"}, {"measurement": "PI (%)", "setting": "[1]; dose 4 μg/mL", "result": 14.17, "unit": "%"}, {"measurement": "A570 nm/A630 nm", "setting": "[1]; dose 8 μg/mL", "result": "0.7023 ± 0.0347"}, {"measurement": "PI (%)", "setting": "[1]; dose 8 μg/mL", "result": 20.21, "unit": "%"}, {"measurement": "A570 nm/A630 nm", "setting": "[1]; dose 16 μg/mL", "result": "0.6556 ± 0.0292"}, {"measurement": "PI (%)", "setting": "[1]; dose 16 μg/mL", "result": 25.52, "unit": "%"}, {"measurement": "A570 nm/A630 nm", "setting": "[1]; dose 32 μg/mL", "result": "0.6113 ± 0.0279"}, {"measurement": "PI (%)", "setting": "[1]; dose 32 μg/mL", "result": 30.55, "unit": "%"}, {"measurement": "A570 nm/A630 nm", "setting": "[1]; dose 64 μg/mL", "result": "0.5498 ± 0.0374"}, {"measurement": "PI (%)", "setting": "[1]; dose 64 μg/mL", "result": 37.54, "unit": "%"}, {"measurement": "A570 nm/A630 nm", "setting": "[1]; dose 128 μg/mL", "result": "0.4898 ± 0.0289"}, {"measurement": "PI (%)", "setting": "[1]; dose 128 μg/mL", "result": 44.35, "unit": "%"}, {"measurement": "A570 nm/A630 nm", "setting": "[1]; dose 256 μg/mL", "result": "0.4497 ± 0.0316"}, {"measurement": "PI (%)", "setting": "[1]; dose 256 μg/mL", "result": 48.91, "unit": "%"}, {"measurement": "A570 nm/A630 nm", "setting": "[2]; 1 μg/mL", "result": "1.1122 ± 0.0385"}, {"measurement": "PI", "setting": "[2]; 1 μg/mL", "result": 17.44, "unit": "%"}, {"measurement": "A570 nm/A630 nm", "setting": "[2]; 2 μg/mL", "result": "1.0002 ± 0.0405"}, {"measurement": "PI", "setting": "[2]; 2 μg/mL", "result": 25.75, "unit": "%"}, {"measurement": "A570 nm/A630 nm", "setting": "[2]; 4 μg/mL", "result": "0.9287 ± 0.0288"}, {"measurement": "PI", "setting": "[2]; 4 μg/mL", "result": 31.06, "unit": "%"}, {"measurement": "A570 nm/A630 nm", "setting": "[2]; 8 μg/mL", "result": "0.8999 ± 0.0320"}, {"measurement": "PI", "setting": "[2]; 8 μg/mL", "result": 33.20, "unit": "%"}, {"measurement": "A570 nm/A630 nm", "setting": "[2]; 16 μg/mL", "result": "0.8225 ± 0.0291"}, {"measurement": "PI", "setting": "[2]; 16 μg/mL", "result": 38.94, "unit": "%"}, {"measurement": "A570 nm/A630 nm", "setting": "[2]; 32 μg/mL", "result": "0.7348 ± 0.0277"}, {"measurement": "PI", "setting": "[2]; 32 μg/mL", "result": 45.45, "unit": "%"}, {"measurement": "A570 nm/A630 nm", "setting": "[2]; 64 μg/mL", "result": "0.5748 ± 0.0314"}, {"measurement": "PI", "setting": "[2]; 64 μg/mL", "result": 57.33, "unit": "%"}, {"measurement": "A570 nm/A630 nm", "setting": "[2]; 128 μg/mL", "result": "0.3628 ± 0.0282"}, {"measurement": "PI", "setting": "[2]; 128 μg/mL", "result": 73.07, "unit": "%"}, {"measurement": "A570 nm/A630 nm", "setting": "[2]; 256 μg/mL", "result": "0.1495 ± 0.0314"}, {"measurement": "PI", "setting": "[2]; 256 μg/mL", "result": 88.90, "unit": "%"}, {"measurement": "Nucleus number (nucleus count of vascular endothelial cells)", "setting": "[3]; 100 μg intravitreal injection on day 7, counted on day 14, per section per eyeball", "result": "7.238 ± 1.194"}, {"measurement": "nucleus counts of retinal vascular endothelial cells", "setting": "[3]; intravitreal injection, dose of 100, day 14, oxygen model group 27.452±2.110", "result": "7.238±1.194"}]}]}
